# Test results from paper doi:10.1101/2023.02.24.529973 (bioRxiv, 2023).
# Molecular target: the molecule itself
# Assay: SEC
protein,measurement,value
"Rv2067c, recombinant tagless protein (enzyme) TDDHPRADIVSRQYHRWLYPHPIADLEAWTTANWEWFDPVHSHRILWPDREYRPDLDILIAGCGTNQAAIFAFTNRAAKVVAIDISRPALDHQQYLKDKHGLANLELHLLPIEELATLGRDFDLVVSTGVLHHLADPRAGMKELAHCLRRDGVVAAMLYGKYGRIGVELLGSVFRDLGLGQDDASIKLAKEAISLLPTYHPLRNYLTKARDLLSDSALVDTFLHGRQRSYTVEECVDLVTSAGLVFQGWFHKAPYYPHDFFVPNSEFYAAVNTLPEVKAWSVMERLETLNATHLFMACRRDRPKEQYTIDFSTVAALDYVPLMRTRCGVSGTDMFWPGWRMAPSPAQLAFLQQVDGRRTIREIAGCVARTGEPSGGSLADLEEFGRKLFQSLWRLDFVAVALPASG",stoichiometry N,2
